Target: enhanced GFP (EGFP)

E. coli dihydrofolate reductase (eDHFR) (from UniProt P0ABQ4 1-159) (enzyme)
t1/2 of the normalized PCC increase between mCherry-eDHFR and EGFP-mito over time in live HeLa cells with 24 uM cRGT: 7.26 min

Reference: article PMC10039045
